Several values for one entry are separate records, joined by “and”; a condition that tells them apart may be missing. Equal entries are not always repeated. Where two headings read alike, the source gives them in different places.

Data set [1] has as its target gld-1 FBEa RNA. Put plainly: Electrophoretic mobility shift assay (EMSA), RNA binding. Also noted: species or system C. elegans. As to the method:
A 3′-Cy5-labeled synthetic RNA was ordered from IDT (gld-1 FBEa, 5′-[…]-3′). The FBF-2 proteins were serially diluted 2-fold from the highest concentration of 10 µM in the buffer used for gel filtration (20 mM HEPES pH 7.4, 150 mM NaCl, and 0.5 mM TCEP). 10 µl of the serially diluted protein samples were mixed with 10 µl RNA (10 nM) in a 2× buffer of 10 mM HEPES pH 7.4, 0.01% (v/v) Tween 20, 0.1 mg/ml BSA, 0.1 mg/ml yeast tRNA, and 2 mM DTT. For experiments in the presence of LST-1, LST-1 proteins at constant concentration were preincubated with FBF-2 at 4 °C for 2 h. The LST-1 concentrations were chosen based on their Kd’s for interaction with FBF-2. The final FBF-2 concentrations ranged from 5000 nM to 0.6 nM, and the LST-1 A or B concentrations were constant at 150 μM or 50 μM, respectively. The protein-RNA mixtures were incubated at 4 °C overnight. The samples were resolved on 10% TBE polyacrylamide gels run at constant voltage (100 V) with 1× TBE buffer at room temperature for 35 min. The gels were scanned and visualized with a Typhoon FLA 9500 imager using the Cy5 channel (excitation wavelength 635 nm). Band intensities were quantified with ImageQuant 5.2 (Cytiva). The data were fit with GraphPad Prism (version 9.2.0) using nonlinear regression with a one-site specific binding model. Mean Kd’s and standard error of the mean (SEM) from three or more technical replicates are reported (Supplementary Table 4). Full scan images for the replicates shown in the main figures and gel images for all replicates are included in a source data file.

Data set [2] addresses gld-1 FBEa RNA. Put plainly: Surface plasmon resonance, RNA-binding kinetics. Also noted: species or system C. elegans. As to the method: Kinetics of FBF-2 binding to the gld-1 FBEa RNA were measured using a 2-channel OpenSPR instrument (Nicoya). A 3′-biotin-labeled synthetic RNA was ordered from Horizon Discovery (gld-1 FBEa, 5′-AUCAUGUGCCAUACA-biotin-3′). The 3′-biotinylated RNA was immobilized on streptavidin-treated biotin sensor chips (Nicoya). All experiments were performed at 20 °C with a buffer of 20 mM HEPES, pH 7.4, 150 mM NaCl, and 2 mM DTT. SPR data were collected using OpenSPR (Nicoya, version 4.3). FBF-2 proteins were injected with a flow rate of 20 µl/min. Data were obtained at five different protein concentrations (25, 50, 100, 200, and 400 nM for wild type RBD + CT; 12.5, 25, 50, 100, and 200 nM for RBD + CT mutants and wild type RBD). Sensor chips were regenerated using 0.05% or 0.1% (v/v) SDS. For each experiment, five binding curves were simultaneously fit using a 1:1 binding model with the TraceDrawer software (Ridgeview Instruments, version 1.9.1). Mean values and standard deviation were calculated from two technical replicates. Despite our efforts, the fit of the binding curves for the association phase of FBF-2 RBD and FBF-2 RBD + CT mutants is poorer than the fit for FBF-2 RBD + CT WT. The appearance of the curves is consistent with the derived kon and koff values, and importantly, the curve fit for the dissociation phase is better.

A short description of data set [3]: Melting temperature of FBF-2 proteins. In kind it is physicochemical. As to the method:
Mutants of FBF-2 RBD + CT: Y479A (5′-[…]), L610A (5′-[…]), and Loop6A (E592A, D594A, E597A, E599A, E604A, E605A; 5′-[…]) were generated by site-directed mutagenesis with the primers indicated. Plasmid sequences were verified by DNA sequencing (Azenta Life Sciences). Protein variants were expressed and purified like wild type proteins. Melting temperatures of wild type and mutant proteins were assessed by differential scanning […]. Reaction mixtures (total volume of 20 μl) contained ~0.3 mg/ml FBF-2 proteins and Sypro Orange dye (1:1000 dilution) (Sigma). Fluorescent intensity was collected from 25 °C to 95 °C (3 °C increment/min) with a real time PCR instrument (Applied Biosystems™ QuantStudio 7 Flex System) using excitation and emission wavelengths of 470 nm and 586 nm, respectively. Protein Thermal Shift^TM software (Applied Biosystems, version 1.4) was used to analyze protein melting curves and calculate melting temperatures (Tm).

The subject of another data set is LST-1. As to conditions: Y479A mutation; cited from earlier work.
Another data set deals with T1, FBF-2 RBD+CT (Caenorhabditis elegans, UniProt Q09312 164-632).
T1 sequence: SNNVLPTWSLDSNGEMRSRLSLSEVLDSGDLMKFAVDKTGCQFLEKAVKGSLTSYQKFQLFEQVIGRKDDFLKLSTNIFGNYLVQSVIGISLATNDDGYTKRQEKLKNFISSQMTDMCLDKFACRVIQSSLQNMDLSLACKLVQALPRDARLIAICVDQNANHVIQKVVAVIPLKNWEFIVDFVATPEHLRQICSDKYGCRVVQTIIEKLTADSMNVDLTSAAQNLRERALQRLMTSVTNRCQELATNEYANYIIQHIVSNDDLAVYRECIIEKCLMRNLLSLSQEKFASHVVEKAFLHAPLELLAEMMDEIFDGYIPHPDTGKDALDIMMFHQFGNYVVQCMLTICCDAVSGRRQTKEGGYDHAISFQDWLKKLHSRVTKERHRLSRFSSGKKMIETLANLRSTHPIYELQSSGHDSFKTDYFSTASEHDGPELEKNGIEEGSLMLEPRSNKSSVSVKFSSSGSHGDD
Briefly: crystal structure; 2.1 A; 30% PEG 400, 0.1 M Tris pH 8.5; EMSA: FBF-2 in 20 mM HEPES pH 7.4, 150 mM NaCl, 0.5 mM TCEP mixed 1:1 with 5 nM final RNA in 10 mM HEPES pH 7.4, 0.01% Tween 20, 0.1 mg/ml BSA, 0.1 mg/ml yeast. As to conditions: protein: recombinant; tags: none (His6-SUMO removed with Ulp1).

The mark [4] stands for this setting: mean ± SD, two technical replicates, 20 °C, pH 7.4, 1:1 model.

B1: FBF-2 RBD + CT Y479A: FBF-2 RBD + CT mutated in the R7-R8 loop (Y479A) (protein, UniProt Q09312 164-632, looked up, variant Y479A)
chain: SNNVLPTWSLDSNGEMRSRLSLSEVLDSGDLMKFAVDKTGCQFLEKAVKGSLTSYQKFQLFEQVIGRKDDFLKLSTNIFGNYLVQSVIGISLATNDDGYTKRQEKLKNFISSQMTDMCLDKFACRVIQSSLQNMDLSLACKLVQALPRDARLIAICVDQNANHVIQKVVAVIPLKNWEFIVDFVATPEHLRQICSDKYGCRVVQTIIEKLTADSMNVDLTSAAQNLRERALQRLMTSVTNRCQELATNEYANYIIQHIVSNDDLAVYRECIIEKCLMRNLLSLSQEKFASHVVEKAFLHAPLELLAEMMDEIFDGAIPHPDTGKDALDIMMFHQFGNYVVQCMLTICCDAVSGRRQTKEGGYDHAISFQDWLKKLHSRVTKERHRLSRFSSGKKMIETLANLRSTHPIYELQSSGHDSFKTDYFSTASEHDGPELEKNGIEEGSLMLEPRSNKSSVSVKFSSSGSHGDD
Take B1: the Kd on gld-1 FBEa RNA [1] is 36 nM and 39 nM and 47 nM; at gld-1 FBEa RNA [1] (no LST-1, mean ± SEM of independent technical replicates (n = 3-5), 4 °C overnight, pH 7.4, Cy5-RNA 5′-AUCAUGUGCCAUAC-3′), 62 nM; at gld-1 FBEa RNA [1] (no LST-1, replicate 1), 75 nM; at gld-1 FBEa RNA [1] (no LST-1, replicate 2) it was 64 nM; at gld-1 FBEa RNA [1] (no LST-1, replicate 3) it was 48 nM; at gld-1 FBEa RNA [1] (pH 7.4), 41 ± 6 nM. Besides, the dissociation constant (Kd) on gld-1 FBEa RNA [2] (derived from on/off rates, mean ± SD, two technical replicates) stood at 12.9 ± 6.4 nM; at gld-1 FBEa RNA [2] (replicate 1), 17.4 nM; at gld-1 FBEa RNA [2] (replicate 2) it was 8.3 nM. Besides, the koff is 1.18 ± 0.11 x10^-3 s^-1 in the data set on gld-1 FBEa RNA [2] (setting [4]); 0.00125 s⁻¹ in the data set with gld-1 FBEa RNA [2] (replicate 1, read-out: koff); 0.0011 s⁻¹ with gld-1 FBEa RNA [2] (replicate 2, read-out: koff). For the same molecule, the kon in the data set with gld-1 FBEa RNA [2] (setting [4]) is 10.2 ± 4.3 x10^4 M^-1 s^-1; in the data set with gld-1 FBEa RNA [2] (replicate 1) it was 71900 M⁻¹ s⁻¹; with gld-1 FBEa RNA [2] (replicate 2) it was 133000 M⁻¹ s⁻¹. The thermal stability entry in data set [3] (in words, vs RBD alone or vs RBD + CT) is on record as “decreased the thermal stability”. In addition, the Tm in data set [3] (mean ± SD, three technical replicates, ~0.3 mg/ml protein, Sypro Orange, 25 to 95 °C, fluorescence) stood at 35.25 ± 0.05 °C; in data set [3] (replicate 1), 35.30 °C; in data set [3] (replicate 2), 35.30 °C; in data set [3] (replicate 3) it was 35.16 °C. Further, the “interaction with LST-1” value in the data set on LST-1 was “disrupts interaction between FBF-2 and LST-1”.
CUGUGAAUG (ssRNA) [cFBE RNA]: the binding result in the data set with FBF-2 RBD+CT is “binds”.

The values are drawn from PMC10641069, “Intra- and inter-molecular regulation by intrinsically-disordered regions governs PUF protein RNA binding” (Nature Communications, 2023).
